Assay results: the DeepSol protein solubility set

Assay: soluble on expression in E. coli; label from the status in PepcDB or PDB records
For “MDRIPFGIRQLDSIINGGAPAGSVVLLSGEAGAGSREFMHTSALINGLEQVDTELHDLYYGDRSPDAVAPDEVHYISFTTNESQLVSEMRLAMDDDVVDKGSRAVEFHDLSERYFHISPVPREWYASETASITDLRARHEREDLLGTLGMVLNEVAANNLVVIDSLSDLVSAMGEEIEWSDISSLVQGLQKAAHQWGCLLLLHINPETLSTVRHGQLVDASHGTMEFAWESGGSTRARTLVVQQFRGVLSQIEDEDIVQFETELGDAGFDISDVRKIRLEHHHHHH”, the “soluble on expression in E. coli” value was “not soluble”.
With “MEEPQITVGILSGKEIEFSFPESFTTPDGTKVSGAQKAVYQKEKIYWSGKEYDELIFYPQPNAGIFFELKDVTIGINFHWERKEVQRFQGALKIIVEGETLTAINVISIEDYLTSVISSEMSATASLELLKAHAVISRSWLINKLRVENEKWKATIQPDSAANSPHSTLHSQLIKWYDHEAHTHFDVCADDHCQRYQGITRASTPQAIEAVSATRGEVLMYEGKICDARFSKCCGGAMEEFQNCWENVRHPYLTGKRDYIPESHASDSEKQITGPAIQLPDLTQEEEADRWIRTSPDAFCNTQDKKILSQVLNNYDQETTDFYRWKISYSQQELAELIHQRSGIDFGEIIDLIPVERGTSGRLIRLKIVGTLRTLTIGKELEIRRTLSPSHLYSSAFLVDKEKGEEGNVPTRFTLTGAGWGHGVGLCQIGAAVMGERGYYYKDILAHYYPGSRLEKQYE” the “soluble on expression in E. coli” value was “not soluble”.
With “MGSDKIHHHHHHMDKAFPSGLAVGIFDHLDEDGPDIARQYEDRLMLAEACDHLGFYAYHLAEHHCTPHGRGPSPNLFLSSVAQRTRRLRVGPLVMLLALYHPLRAFEEICMLDQLSGGRLELGIGRGSLPIELGYFGIGSDAAPNHYAEASEILINALKGGTLSYQGRHFELNSVPLTLRTHQRPHPPTWIATNRPESAVWAAANGVNIACVGPSSSVRRITDAFRREHTSEADDQTPFLGLLRMVVIGRSETDARSLAAPAYERWLKSFKFLYDLNGMPTPPNLPLTFDAAIEKELCVVGTAASAGHALLEQLEAAGANYLLCQPAFGNLSLDASLYTATAIQSAIMARVG” the “soluble on expression in E. coli” value was “not soluble”.
For “MSLPGNNSAKGTATGNATALWRNAQLATLNPAMDGIGAVENAVIAVRNGRIAFAGPESDLPDDLSTADETTDCGGRWITPALIDCHTHLVFGGNRAMEFEMRLNGATYEEIAKAGGGIVSSVRDTRALSDEVLVAQALPRLDTLLSEGVSTIEIKSGYGLDIETELKMLRVARRLETLRPVRIVTSYLAAHATPADYKGRNADYITDVVLPGLEKAHAEGLADAVDGFCEGIAFSVKEIDRVFAAAQQRGLPVKLHAEQLSNLGGAELAASYNALSADHLEYLDETGAKALAKAGTVAVLLPGAFYALREKQLPPVQALRDAGAEIALATDCNPGTSPLTSLLLTMNMGATLFRMTVEECLTATTRNAAKALGLLAETGTLEAGKSADFAIWDIERPAELVYRIGFNPLHARIFKGQKVSPEGHHHHHH”, the “soluble on expression in E. coli” value was “soluble”.
With “MGSSHHHHHHSSGLVPRGSHMYHHYHAFQGRKLTDQERARVLEFQDSIHYSPRYSDDNYEYRHVMLPKAMLKVIPSDYFNSEVGTLRILTEDEWRGLGITQSLGWEHYECHAPEPHILLFKRPLNYEAELRAATAAAQQQQQQQQQQQQQQQQHQTQSISNDMQVPPQIS” the “soluble on expression in E. coli” value was “soluble”.
With “MAEARSQPSAGPQLNALPDHSPLLQPGLAALRRRAREAGVPLAPLPLTDSFLLRFLRARDFDLDLAWRLLKNYYKWRAECPEISADLHPRSIIGLLKAGYHGVLRSRDPTGSKVLIYRIAHWDPKVFTAYDVFRVSLITSELIVQEVETQRNGIKAIFDLEGWQFSHAFQITPSVAKKIAAVLTDSFPLKVRGIHLINEPVIFHAVFSMIKPFLTEKIKERIHMHGNNYKQSLLQHFPDILPLEYGGEEFSMEDICQEWTNFIMKSEDYLSSISESIQ” the “soluble on expression in E. coli” value was “soluble”.
With “MGSDKIHHHHHHMTEFAIELTGINKSFGAVKANRDVTMSVPKGSIHGIIGENGAGKSTLMSILYGYYHADSGTIRVNGKDVRIRNSQEAIRLGIGMVHQHFMLVETFTVLENIVLGAEGGRLLKGGMEQAREHLKELNKNYSLEVDPDALVGDLGVGLQQRVEILKALYRGADVLILDEPTAVLTPQEADHLFHILRSLKAQGKTVILITHKLREVMDITDNVSVMRAGTVVDNVRTCDVDKEKLADLMVGRKVSLKVDKADSQAGAAVLDVQGLTLIDERKVKLLDNLNFQVRAGEIVGIAGVSGNGQSELLEVLAGMRDPSAGAVVYKGEDLLKLPCRRKPRAAVYRQRGIGHIPEDRSREGLVKAFSTFENAILGYHDDKTLNSGPLYSRKKLVERTRDFIAQFDIRPGNPLLRVGLLSGGNQQKVVLAREIHANPDLLLIGQPTRGVDIGAIEFIHKRLIELRDEGKAILLVSVELEEILALSDRILVMAGGQITGEVAAKDADTISLGLLMGGHKH” the “soluble on expression in E. coli” value was “not soluble”.
In the case of “DNFNQQKKKFGGQDIFMTEEQKKYYNAMKKLGSKKPQKPIPRPANKFQGMVFD”, the “soluble on expression in E. coli” value is reported as “soluble”.
In the case of “MNKDVSLGQPIVRYEDGKLFNTTDQYVTEFPLTIMVNGEEFATVICSPTNLEELVIGFLASEGAILKRDELKSVLIDDSKGFAHVELNKDLGDRFQYSTKRMIASCCGKSREFYFQNDAAIAKTSMSKITLTPIQIINMMTRLQSASHIYQETGGLHNAAISDGLTFFVHRQDIGRHNALDKLYGFCIQRHITVRDKVLIFSGRISSEILIKAAKIGVGVILSKSAPTTLAVTLANDLNITAVGFIRNGGFNIYSHPERIIDSEQ”, the “soluble on expression in E. coli” value is reported as “not soluble”.
For “MALMYPFHVAQPPLNWSEHLWVSEVSPAKESFITTICEHRQAQWDNQDLLRHLQDSVAILTREDQRHVNAVHAAANMPANP”, the “soluble on expression in E. coli” value was “not soluble”.
For “GSQVQLVESGGGLVQAGGSLRLSCAASGYAYTYIYMGWFRQAPGKEREGVAAMDSGGGGTLYADSVKGRMTISRDKGKNTVYLQMDSMKPEDTATYYCAAGGYELRDRTYGQWGQGTQVTVSS”, the “soluble on expression in E. coli” value was “soluble”.
With “MGSDKIHHHHHHMAQGTLYIVSAPSGAGKSSLIQALLKTQPLYDTQVSVSHTTRQPRPGEVHGEHYFFVNHDEFKEMISRDAFLEHAEVFGNYYGTSREAIEQVLATGVDVFLDIDWQGAQQIRQKMPHARSIFILPPSKIELDRRLRGRGQDSEEVIAKRMAQAVAEMSHYAEYDYLIVNDDFDTALTDLKTIIRAERLRMSRQKQRHDALISKLLAD” the “soluble on expression in E. coli” value was “soluble”.
For “MLCLGIEGTAEKTGVGIVDEAGNVLSLRGKPLIPEKGGIHPREAAEHHAKWIPRLIAEACRDAGVELGEIGLISFSRGPGLGPALRTVATAARTLALSLDVPIVGVNHCIGHIEIGRLTTGASDPVSLYVSGGNTQVIAFNEGRYRVFGETLDIAVGNMLDQFARESGLGHPGGPVIEQLALKASEYIELPYSVKGMDISFSGLLTAALRKMEAGASLEDLAYSIQETAFSMLVEVTERALAYTEKNQVLLCGGVAVNRRLRDMLREMCQEHHVEFHMPPPEYCGDNGAMIAWLGQLVYKYRGPDALEDTTVVQRYRTDEVDVPWMRESEAGIELPPDILAKGAEANIYRGQWIGRPCIIKERISKGYRIPEIDQKLRSSRTRREARLINQAKGAGVHTPVLFDVDPDGGVMVMEEVRGTPFRDAVEDTELCSRIGEAIGRLHHAGIIHGDLTGSNIIIRGGDVVFIDFGLGRFSDEIEDMGVDLLVLKKSLESTHYALAGECFSRVLEGYGKIIDADIQSKIREIESRGRYTD”, the “soluble on expression in E. coli” value was “soluble”.
For “MASVTLKNVCKAYGDVLISKNVDLEIQEGEFVVFVGPSGCGKSTLLRCIAGLEDITSGDLYIGEQRMNDVEPSKRGVGMVFQSYALYPHLNLYDNMSFGLKLSKADKSEIKKRVDHAAEILQLSHLLDRQPKALSGGQRQRVAIGRTLVSQPNVFLLDEPLSNLDAALRVQMRSEITKLQRKLGCTMIYVTHDQVEAMTMADKIVVLDAGFVSQVGKPLELYHYPQNRFVAGFIGSPKMNFMSVFIEGVEKDRVQVQLSNGTTFWIPVDGTTVTRGERMSLGIRPEHLVEAEHGDAKIEGKVMIVEKLGNETQVYMNLKGSDSDVIYRQPDTLDVETGDTLTIGIPAHRCHLFHSDGRACRRLHKEKGVDLPA”, the “soluble on expression in E. coli” value was “not soluble”.
For “MVEVLTLGVIQTTLDSTAAWNTDSGEPKISASEDSRAWYEIRRAMRALADHEDQPRIILLPELALPRTRLDDFERLVCSMNALAIVGVDYRLNHRTKSAKNEGLVLVPRNFWKRTPSRYAARVWFGKRDPAPAEASGFKEYMPPWAFHSDPNVYVFDAGPYGRIGVSICYDFMDIERALLYRGRVHHLFVIAYNRDVKLFESLAVSLSRTAFCNVVVCNTGYFGGSLVVSPYYEAFKRIGYSVDGGKVFTAQCVPLPVRDLDAAIHGFDTKPNATYKHLPPGFTTSMDHTAALPEGPSAVAIPLFTSDLEHHHHHH”, the “soluble on expression in E. coli” value was “not soluble”.
For “MASPPPFHSQKLPGEYFRYKGVPFPVGLYSLESISLAENTQDVRDDDIFIITYPKSGTTWMIEIICLILKEGDPSWIRSVPIWERAPWCETIVGAFSLPDQYSPRLMSSHLPIQIFTKAFFSSKAKVIYMGRNPRDVVVSLYHYSKIAGQLKDPGTPDQFLRDFLKGEVQFGSWFDHIKGWLRMKGKDNFLFITYEELQQDLQGSVERICGFLGRPLGKEALGSVVAHSTFSAMKANTMSNYTLLPPSLLDHRRGAFLRKGVCGDWKNHFTVAQSEAFDRAYRKQMRGMPTFPWDEDPEEDGSPDPEPSPEPEPKPSLEPNTSLEREPRPNSSPSPSPGQASETPHPRPS”, the “soluble on expression in E. coli” value was “soluble”.
For “LDKRWLQICEDASTLCADRVKEVLEGHGFTGLHVAAAVADTMAVGDTLFLGASNPVRDASLVGMPLGGVDIFAARGAAGIDGTVSQAVGVALDVQHRDATAIRADRTVALMGDVTFLHDVGGLLGARPENLTIVVANDDGCGIFETLEIGAPEFRPSFEQAFGTPHGVHIEAIAQAYGVNYLRAETLPELIEALIDTTDSAGFNIIEAVTTRSTRRDIDKALTL”, the “soluble on expression in E. coli” value was “not soluble”.
With “MKKEIIVYTISDSLGETSQKLLAAASAQYPDISFLNRYNFSFVTTEEELLEILKDALKDKALVVSTLVSKQLITAAKEFSERTGLLYLDLMAPFFELIQAKAGVDPIEEPGRRHQLDRAYFDKISAIEFAVKYDDGKNPQGFLDSDILLLGVSRTSKTPVSMYLANQGYRVSNLPLIPEVPLPPILEEMDPQKMIGLVCSPETLGQIRSSRLASLGLGNETSYTNVERIEQELAYAEEIFAKYGIPVIDVTAKSVEETAFLIKEKLDERN” the “soluble on expression in E. coli” value was “not soluble”.
For “MQQLQNVIETAFERRADITPANVDTVTREAITHVIDLLDTGALRVAEKIDGQWVTHQWLKKAVLLSFRINDNQVMEGAETRYYDKVPMKFAGYDEARFQREGFRVVPPATVRKGAFIARNTVLMPSYVNIGAFVDEGTMVDTWATVGSCAQIGKNVHLSGGVGIGGVLEPLQANPTIIEDNCFVGARSEVVEGVIVEEGSVISMGVFIGQSTRIYDRETGEVHYGRVPAGSVVVSGNLPSKDGSYSLYCAVIVKKVDAKTRSKVGINELLRTID”, the “soluble on expression in E. coli” value was “not soluble”.
For “MISAAPYRDRVVHHALYNIIVPIFERTFISDSYANRVGFGSHRALRRFTQFSRSSHYVFQADIRKYFPSIDHKILKHLIYRKIKCPDTLWLINTIIDNSNFQEPVINYFPGDNLLAPLERRCGLPIGNLTSQFFANVYLNNFDHFVKEQLQAFKYIRYVDDFALFSDDKAFLETARVIIEEYLTSLRLKIHPIKSQLFETKHGANFVGFRILPNQIRVRSDNLRLGRKRLRQMLRDYDEGKIDAQHLTQSTQSWVAHLKHGDTWQLRQRIFSSSIFDLAMLILEHHHHHH”, the “soluble on expression in E. coli” value was “soluble”.
In the case of “MPLRVDTLTWLSTQAAPGRVMVWPAVRPGICPGPDVWRIPLGPLPHEFRGWIAPCRPRLGASEAGDWLRRPSEGALPGPYIALRSIPKLPPPEDISGILKELQQLAKELRQKRLSLGYSQADVGIAVGALFGKVLSQTTICRFEAQQLSVANMWKLRPLLKKWLKEVEAENLLGLCKMEMILQQSGKWRRASRERRIGNSLEKFFQRCPKPTPQQISHIAGCLQLQKDVVRVWFYNRSKMGSRPTNDASPREIVGTAGPPCPGAPVCFHLGLGLPVDIPHYTRLYSAGVAHSSAPATTLGLLRF”, the “soluble on expression in E. coli” value is reported as “soluble”.
